Results reported in patent US20110045003A1 (SYNOVEX, published 2011).
Numbering of substitutions follows the chain as printed. In names and notes the source's numbering stands.

T1: BSA coupled 37-mer Cad-11 peptide encompassing the Cad-11 immunogen (UniProt P55287 54-90, limits assumed, linked to BSA)
T1 construct: domain: 37-mer peptide encompassing the Cad-11 immunogen; also called Cad-11 antigen; Cad-11 peptide immunogen
T1 peptide (looked up): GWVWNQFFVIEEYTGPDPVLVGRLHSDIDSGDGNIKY

T2: recombinant Cad-11 EC1 human IgG1 fusion protein (R&D Systems Cat. No. 1790-CA-050) (human, UniProt P55287 54-617, limits assumed)
T2 construct: Bought protein; the catalogue product may hold more of the extracellular region; also called recombinant human Cad-11 EC1; recombinant human Cad-11 fusion protein; not shown: human IgG1 part of the bought fusion protein
T2 sequence: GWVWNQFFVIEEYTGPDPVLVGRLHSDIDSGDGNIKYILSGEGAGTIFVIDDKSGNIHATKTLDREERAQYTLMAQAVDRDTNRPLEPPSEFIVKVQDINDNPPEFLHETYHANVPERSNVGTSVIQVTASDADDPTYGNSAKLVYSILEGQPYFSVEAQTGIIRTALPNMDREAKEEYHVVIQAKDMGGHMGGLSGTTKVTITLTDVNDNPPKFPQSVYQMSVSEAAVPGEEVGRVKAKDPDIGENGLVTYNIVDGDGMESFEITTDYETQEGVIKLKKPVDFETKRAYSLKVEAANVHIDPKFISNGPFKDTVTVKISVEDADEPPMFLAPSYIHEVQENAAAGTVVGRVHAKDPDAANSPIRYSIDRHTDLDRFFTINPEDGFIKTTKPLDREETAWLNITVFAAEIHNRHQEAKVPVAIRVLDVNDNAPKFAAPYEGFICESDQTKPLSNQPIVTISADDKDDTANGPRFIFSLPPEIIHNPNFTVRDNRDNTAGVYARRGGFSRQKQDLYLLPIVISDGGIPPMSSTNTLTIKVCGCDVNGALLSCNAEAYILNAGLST

B1: humanized anti-Cad-11 antibody SDP031 (Vκ1/VH3) (antibody, IgG4, V domains shown)
VH: EVQLVQSGAEVKKPGASVKISCKASGYSFTGYFMNWVRQAPGQGLEWIGRINPYTGDTFYNQKFKGRATLTVDKSTSTAYMELSSLRSEDTAVYYCGRLGSRYWYFDVWGQGTTVTVSS
VL: DVLMTQTPLSSPVTLGQPASISCRSSQSIIHSNGNTYLEWYLQKPGQSPQLLIYKVSNRFSGVPDRFTGSGSGTDFTLKISRVEAEDVGVYYCFQGSHVPWTFGQGTKLEIK
notes: humanized IgG4 (S241P), kappa
B2: humanized anti-Cad-11 antibody SDP071 (Vκ2/VH2) (antibody, IgG4, V domains shown)
VH: B1 VH with R38K
VL: B1 VL with T68S
notes: humanized IgG4 (S241P), kappa
B3: humanized anti-Cad-11 antibody SDP061 (Vκ2/VH1) (antibody, IgG4, V domains shown)
VH: B1 VH with A9P, V11L, R38K, P41H, T76S, S84V, R87S, T91S
VL: B1 VL with T68S
notes: humanized IgG4 (S241P), kappa

What was measured:
[1] = target: human Cadherin-11 protein expressed on 431-D-11 cells (human) (UniProt P55287); assay: cell-based or functional assay
[2] = target: T1, BSA coupled 37-mer Cad-11 peptide …; assay: ELISA, BSA-coupled 37-mer cadherin peptide coated at 500 ng/ml, antibody titrated, A450
Experimental: Reactibind plates (ThermoScientific) were coated with 500 ng/ml of the BSA coupled cadherin 37-mer peptide (NE peptide) corresponding to Cadherins-7, -8, -9, -11, -18, -20, and -24 in 0.05% Tween (EMD, product code 9480) in PBS (pH 7.2) (Gibco(Invitrogen), #20012) at 100 μl volume/well for overnight at 4° C. The peptide containing solution was removed from the well and the plate blocked with a 2% bovine serum albumin (BSA) in PBS, 200 μl volume/well, for 2 h at 22° C. The plate was then washed twice with 200 μl/well of PBS-Tween 0.05% at 22° C. and blotted dry. A dilution series from 5 μg/ml to 8 ng/ml in a volume of 100 μl/well of each the humanized anti-Cad-11 antibodies were incubated in the peptide coated wells and incubated at 22° C. for 1 hr. Antibody solution was removed from the wells and the plate washed twice with 200 μl/well of 0.05% Tween-PBS at 22° C. and blotted dry. The goat-anti mouse IgG (Pierce # 31432) was added to each well to plate at a 1:1000 dilution, 100 μl/well and incubate at 22° C. for 30 min. The secondary antibody solution was removed and the plate washed twice with 200 μl/well of 0.05% Tween-PBS at 22° C. and blotted dry. The reaction was developed by adding 100 μl/well tetramethylbenzidine (TMB) reagent IgG (Pierce # 34022, 1 step Turbo TMB-ELISA) to plate and developed at 22° C. for 5 min.

[3] = target: T2, recombinant Cad-11 EC1 human IgG1 …; assay: competition ELISA on coated recombinant human Cad-11 EC1 fusion; competitor biotinylated SYN0012/H1M1 at 0.1 µg/ml
Experimental: (§1) The binding of the purified humanized composite variant antibodies (SDP011 to SDP151) to a recombinant Cad-11 EC1 human IgG1 fusion protein was assessed in a competition binding ELISA. A dilution series from 5 μg/ml to 0.0022 μg/ml of the humanized or control (SYN0012/H1M1) antibodies was premixed with a constant concentration of biotinylated murine anti-Cad-11 antibody, SYN0012/H1M1 (0.1 μg/ml, final concentration), before incubating for 1 hour at room temperature on a Nunc Immuno MaxiSorp 96 well flat bottom microtitre plate (Fisher Cat. No. DIS-971-030J) pre-coated with 0.25 μg/ml recombinant human Cad-11 EC1 (R&D Systems Cat. No. 1790-CA-050) diluted in PBS. The binding of the biotinylated mAb was detected with streptavidin-HRP (Sigma Cat. No. 55512) and tetramethylbenzidine (TMB) substrate (Invitrogen Cat. No. 00-2023).
The relative IC50 was calculated by dividing the value for the test antibody by that of SYN0012. Antibody expression levels given are for static cultures in T flasks. PI are calculated.

[4] = target: T2, recombinant Cad-11 EC1 human IgG1 …; assay: competition ELISA on coated recombinant human Cad-11 EC1 fusion protein; competitor biotinylated SYN0012 at 0.1 µg/ml, streptavidin-HRP, OD450
Experimental: as §1

[5] = target: T1, BSA coupled 37-mer Cad-11 peptide …; assay: ELISA on BSA coupled 37-mer cadherin peptides, coat 500 ng/ml
Experimental: A dilution series from 5 μg/ml to 8 ng/ml in a volume of 100 μl/well of each the humanized anti-Cad-11 antibodies were incubated in the peptide coated wells and incubated at 22° C. for 1 hr. Antibody solution was removed from the wells and the plate washed twice with 200 μl/well of 0.05% Tween-PBS at 22° C. and blotted dry. The goat-anti mouse IgG (Pierce # 31432) was added to each well to plate at a 1:1000 dilution, 100 μl/well and incubate at 22° C. for 30 min. The secondary antibody solution was removed and the plate washed twice with 200 μl/well of 0.05% Tween-PBS at 22° C. and blotted dry. The reaction was developed by adding 100 μl/well tetramethylbenzidine (TMB) reagent IgG (Pierce # 34022, 1 step Turbo TMB-ELISA) to plate and developed at 22° C. for 5 min.
The greatest cross reactivity was seen against Cad-8. […] This assay was repeated with the Cad-11, Cad-8 and Cad-18 antigens with a lower antigen coat concentration of 50 ng/ml and a wider dilution series of the SDP051 antibody (FIG. 41B). […] An EC50 for Cad-18 could not be established due to the low level of binding observed.

Molecule | in vitro cell aggregation assay [1] | EC50 (read off the curve) [2] | relative IC50 (IC50 of the test antibody divided by that of SYN0012) [3] | IC50 (read off the curve) [4] | fold greater binding to the Cad-11 antigen than to the related antigens from the other cadherins [5]
human Cad-11-EC1-hIgG2-Fc1 fusion protein (Fc fusion) | 3 µg/mL |  |  |  | 
B1 |  | ~0.06 µg/mL | 0.84 ratio (column head prints µg/mL) | ~0.2 µg/mL | > 20 fold
B2 |  | ~0.07 µg/mL | 0.33 ratio (column head prints µg/mL) |  | > 20 fold
B3 |  | ~0.06 µg/mL | 0.47 ratio (column head prints µg/mL) |  | > 20 fold
